Test results: IntAct's records for PubMed 12540855

B1: Histone-lysine N-methyltransferase SETD7 (Homo sapiens), Q8WTS6 (parent)
chain: MDSDDEMVEEAVEGHLDDDGLPHGFCTVTYSSTDRFEGNFVHGEKNGRGKFFFFDGSTLEGYYVDDALQGQGVYTYEDGGVLQGTYVDGELNGPAQEYDTDGRLIFKGQYKDNIRHGVCWIYYPDGGSLVGEVNEDGEMTGEKIAYVYPDERTALYGKFIDGEMIEGKLATLMSTEEGRPHFELMPGNSVYHFDKSTSSCISTNALLPDPYESERVYVAESLISSAGEGLFSKVAVGPNTVMSFYNGVRITHQEVDSRDWALNGNTLSLDEETVIDVPEPYNHVSKYCASLGHKANHSFTPNCIYDMFVHPRFGPIKCIRTLRAVEADEELTVAYGYDHSPPGKSGPEAPEWYQVELKAFQATQQK

Variants of: B1
Conditions: with h31_human H3C1, P68431

Variant | effect of a mutation on the interaction
Y245A | decreasing interaction
